# Results: the RNAGym collection of RNA variant scans (doi:10.1073/pnas.2313332121)
# Fewer inactive variants are shown than the library holds.
# B1: TPR 5TU (parent)
# chain: GGAUCUUCUCGAUCUAACAAAAAAGACAAAUCUGCCACAAAGCUUGAGAGCAUCUUCGGAUGCAGAGGCGGCAGCCUUCGGUGGCGCGAUAGCGCCAACGUUCUCAACUAUGACACGCAAAACGCGUGCUCCGUUGAAUGGAGUUUAUCAUG
# Variants of: B1
# Test: polymerase ribozyme fitness, log enrichment relative to wild type (log ratio); higher = more active; in vitro selection for triplet polymerase activity
# How it was run: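 Mutant libraries of both subunits of a heterodimeric triplet polymerase ribozyme were PCR-built, transcribed, and selected once in triplicate, with frozen incubation at −7 °C and capture of gel-excised extended constructs on streptavidin beads before RT-PCR. Illumina sequencing of input and output libraries was filtered to genotypes with ≥10 input reads and ≥1 read per output. Fitness is the logarithm of genotype enrichment over wild-type enrichment, using inverse-variance-weighted replicate averages. The logarithm is base 2.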
row,Variant,polymerase ribozyme fitness (log ratio)
1,A16U A19U C103G,-4.18
2,A16C U33C U77A,≤ -4.2
3,A16G C35U C116G,-1.98
4,A16U A30C U61A C96U G140U,≤ -4.2
5,A16U C27A A28U C54U C75U G92C G136U,≤ -4.2
6,A16G U53A U146G,-2.19
7,A16U A29C C35U A41C G86A A98U C114U G141U U145G,≤ -4.2
8,A16U C27U A29C A49G C95U C105G U146A,≤ -4.2
9,A16C U56C C87U,-2.13
10,A16G A28G G59A G80A G83C C87U,≤ -4.2
11,A16U U44G G48A C87U U102G C131U C132G,≤ -4.2
12,A16U A52G U104G U134G,≤ -4.2
13,A16G U55A G74A U82G C85G,≤ -4.2
14,A16U C32A C35G A47C G58C G68A G70U C96G G126C,≤ -4.2
15,A16C G94U A107G C116A C132U A142G,≤ -4.2
16,A16G U31A A39U C132U G136A,-3.4
17,A16G A23C U55G G88A C108A U111C A122C,≤ -4.2
18,A16U A150G,-2.95
19,A16G U33G G81A C87G G100A,≤ -4.2
20,A17C A20C U53G G84A,-2.28
21,A16C A150U,-0.0438
22,A17C A20C C108G,≤ -4.2
23,A16U A19G U31A C38U G42C U44G G59U C96G,≤ -4.2
24,A16U G133C U146A,-3.79

row,Variant,polymerase ribozyme fitness (log ratio)
1,A16U C57A,-1.96
2,A16U G42A U53A C85U C96G A120C,≤ -4.2
3,A16U U53A G80U C85U G152U,≤ -4.2
4,A16C G84A C105G C114U C125A U144A U151G,≤ -4.2
5,A16G U78A C93G,≤ -4.2
6,A16C G88A C116G,-4.19
7,A16G C69U C85U C131G A142U,≤ -4.2
8,A16G U148C,-2.77
9,A16C G59C,-0.987
10,A16C U144G,-0.499
11,A16C A52U C85G A122G G124C,≤ -4.2
12,A16G A17G C57U A64C A91U C95U C118G G124A G126A G133C,≤ -4.2
13,A16C G42U G58C G84U G100A U102G A137U U144C,≤ -4.2
14,A16U U56G G84A U102A G141U,-3.81
15,A16G A22U A47C C95A C96U,-3.89
16,A16U C96U,-2.07
17,A16G G81A G83A C93U G128C U134G,≤ -4.2
18,A16C G126A,-0.0283
19,A16U A17G G59C U77G G94U,-3.85
20,A16G A23G A37U G86A U135A,≤ -4.2
21,A16U A19U,-2.39
22,A16G C43U C79U C132U,≤ -4.2
23,A16C U101G U127A,-3.71
24,A16C G25U U61G G88U C93U G136A A147C U148C,≤ -4.2

row,Variant,polymerase ribozyme fitness (log ratio)
1,A16U G58U C69U U78G G80C C96A G141U,≤ -4.2
2,A16G A17G A19C G50A,0.928
3,A16U C27U C57A C93A A107C C125A U146G,≤ -4.2
4,A16G A17G U56G U61G G68A C72U C114G G143U,≤ -4.2
5,A16C C18U C38U A39C A49U G67A U134G,≤ -4.2
6,A16U C69A U145G,-3.75
7,A17C A21U C51U G59C C95U A106U G136C U151G,≤ -4.2
8,A16U C51U C95U,-2.98
9,A16G A17U A41U C93U C125U U134G,-4.05
10,A16G G83U U139G,-1.17
11,A16G A20C C35A U44A A47G C129U G140C,≤ -4.2
12,A16C A113U C118G,-3.27
13,A16U A23G U148A,≤ -4.2
14,A16U A120G,-2.64
15,A16U A120U,-2
16,A16U C51A A73G C85U A122C,≤ -4.2
17,A16U A106G U144A,-2.13
18,A16G C36U A49C G88A C93G A107U G140U G143C,≤ -4.2
19,A16U G50A C76U,-3.4
20,A16G A49U C63U C72U G88C G141C,≤ -4.2
21,A16U A47U U55A C87U,-2.97
22,A16U G86A A91U A106G C108U C129A,≤ -4.2
23,A16U C54G A97C C116G G124U A137C,≤ -4.2
24,A16U C18U U44G U82A C93U C99A A106G A142C,≤ -4.2

row,Variant,polymerase ribozyme fitness (log ratio)
1,A16G C57A G62A C96U,-1.89
2,A16G G48A A122U C149U,-3.58
3,A17C A19C A73G C96U C123U C125G,-3.23
4,A16G A91U,≤ -4.2
5,A16G A20U C32A U45A A47C G83C C93G G140A,≤ -4.2
6,A16G G80C G81A A97G U102C G136C C149U,≤ -4.2
7,A16G A20U G46U A60G A138C,≤ -4.2
8,A16U U56A C96A,-3.23
9,A16U U31A G83A C105U,-1.17
10,A16C U61A A89G C118A C149G,≤ -4.2
11,A16U G50A C95G C118G,≤ -4.2
12,A16C G112U A150U,≤ -4.2
13,A16U C38U A60C G80U A97G,≤ -4.2
14,A16C G94A,-1.78
15,A17C A37C A52U G83U,-3.08
16,A17C A26U A49C,≤ -4.2
17,A16U C85G,-3.36
18,A16U C85A,-2.74
19,A16G A22G C27A A49C C57U G59C C85U C118A C129U,≤ -4.2
20,A17C A40C G83C U109G,-3.6
21,A16U A17U G48U U104G G124A C131G,-4.15
22,A16G G94A G143C,-3.22
23,A16G G25U A150G,-3.86
24,A16U U53C A73G G94C A150C,≤ -4.2

row,Variant,polymerase ribozyme fitness (log ratio)
1,A16G U144G,0.162
2,A16C U44A C69G C75G A91U C114G G117C,≤ -4.2
3,A16U U33A G42A C93U G140A,≤ -4.2
4,A16U A52U G74A C87A A119U U148G,≤ -4.2
5,A16G A37U U134G,-3.68
6,A16G A19U G48A C54A U101G C108A A137C A150C,≤ -4.2
7,A16U G34U G71A G94A U102G U151A,≤ -4.2
8,A16G U45A C72U C93G U151A,≤ -4.2
9,A16G C35G U53A C57U G84U C105G A150U,≤ -4.2
10,A16U G58U,-2.34
11,A16G U31G A49U,≤ -4.2
12,A17C A19U G58A A97G U102G A119G,-3.63
13,A16U U31A C38G A41C G62C A120U A142G A147U,≤ -4.2
14,A16U G46U G59C C76G G84U C85U U102C A138U,≤ -4.2
15,A16C C36U G59C,-2.53
16,A17C A47C G94C,-0.464
17,A16C C32U C72G C75A G86C C87G C99U A107U A120U G124U,≤ -4.2
18,A16C G34U C93U C105U G112A,≤ -4.2
19,A16G A20G A120C,-1.84
20,A16U G83C C99A,-3.97
21,A16U A20C A91U G141U,≤ -4.2
22,A16G C116A,0.283
23,A16U A52G A64U U77A C87A G143C,≤ -4.2
24,A16G G50A A142C,-3.93

row,Variant,polymerase ribozyme fitness (log ratio)
1,A16U C57A C99G U104C,-3.73
2,A16C G25U C36U G59C C93U U104G G140C,≤ -4.2
3,A16G C27U,-2
4,A16U U56A G62A U82G C85U A142G,-4.16
5,A16U G94C,-2.55
6,A16C C36A G46C G68C C93U G112U A115C A122U G143U,≤ -4.2
7,A16U A17U A26U C27G A49U C54A A66U C85A C116G,-3.74
8,A16G G83U G92A C96U,≤ -4.2
9,A16U A17C U44C U56A C76U G88U C114A,≤ -4.2
10,A16G A19G G84U A122U,-3.73
11,A16G G94U C95A U134G,-3.52
12,A16C U31A C32A G92C A97C A98C C103A C116U C125U,≤ -4.2
13,A16G A22U G94A,-0.896
14,A16G C43A U53C G70A A73G,≤ -4.2
15,A16U U55G C85G C103U A121U,-4.13
16,A16U A22G C57A U135A,-3.06
17,A16U U31C C38U C114U,-3.95
18,A16U U31A A64U C85U A91G C131A,≤ -4.2
19,A16U C35U G92U C116G,-3.21
20,A16C G25C,-2.46
21,A16U A41G C51U G74C C95U C103U C118U G133A,≤ -4.2
22,A16U A22C,-2.41
23,A16G A24U G46U C85G A106C U109A C114U C118G A120G,≤ -4.2
24,A16U C38U A91U C103A,≤ -4.2

row,Variant,polymerase ribozyme fitness (log ratio)
1,A16U G84U G86U C93G U144C,-3.51
2,A16C U82G,-1.06
3,A16U U55A A91G G117U,≤ -4.2
4,A16G C54U C76A C93U A97G C103U C123U G128C,≤ -4.2
5,A16U C85U C87U A115G,-3.52
6,A16U G50A A60C G83C G141C,≤ -4.2
7,A16G A20U C99U U102G,≤ -4.2
8,A16U U56A G83A U109C U111G,≤ -4.2
9,A16G C57A,-0.592
10,A16C C32U,-2.43
11,A16U A64U A66U G94A C108U A150G,≤ -4.2
12,A16U G68A C87A G94C G141A,≤ -4.2
13,A16U A39C A49C C96U C125U,≤ -4.2
14,A16G A21C G48C C54A G58U C93U A122G,-3.83
15,A16C U101G,-0.303
16,A16G C149G,-3.97
17,A16U U61G G81A,-1.91
18,A16G A37U A60U G71C G84A C116A G124C U146G,≤ -4.2
19,A17C A21G A40U G86U A122U,-1.48
20,A16C G83A G94A,-2.79
21,A16U G70C G81U A89G,≤ -4.2
22,A16U A39G A89C C95U G152C,≤ -4.2
23,A16U A47G C51U C95A C114U,-3.93
